Two substances from PMC6120557 can be followed below.

What is called Kd is the concentration at which binding is half-saturated. Higher therefore signals weaker binding.

This assay addresses chemokine receptor 4 (CXCR4), GFP‐tagged, on MDAMB231 X4 cells (human) (UniProt P61073). Nature of the assay: flow cytometry on cells. (Flow cytometry measures light scatter and fluorescence of single cells or particles in a stream.)
UniProt P61073, sequence (P61073 whole entry): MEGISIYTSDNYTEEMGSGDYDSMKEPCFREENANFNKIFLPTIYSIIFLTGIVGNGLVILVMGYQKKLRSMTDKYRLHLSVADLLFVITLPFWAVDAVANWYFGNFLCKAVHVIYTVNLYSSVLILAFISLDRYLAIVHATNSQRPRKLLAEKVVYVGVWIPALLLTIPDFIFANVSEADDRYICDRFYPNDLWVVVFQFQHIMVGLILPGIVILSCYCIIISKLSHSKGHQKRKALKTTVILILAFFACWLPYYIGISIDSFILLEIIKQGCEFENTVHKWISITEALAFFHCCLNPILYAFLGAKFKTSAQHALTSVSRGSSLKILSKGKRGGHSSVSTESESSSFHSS

With N3‐Cy5‐AcTZ14011 (peptide), the Kd stood at 222 nM.
The substance Cy5‐S‐S‐Cy3‐AcTZ14011 (peptide) came in with a Kd of over 500 nM.
